Results from patent US20040092712A1 (published 2004).

T1: sCD14(1-307)S286C (human, UniProt P08571 20-326)
T1 construct: CD14 mutant polypeptide expressed in COS-1 cells; also called CD14(s286C)
T1 sequence: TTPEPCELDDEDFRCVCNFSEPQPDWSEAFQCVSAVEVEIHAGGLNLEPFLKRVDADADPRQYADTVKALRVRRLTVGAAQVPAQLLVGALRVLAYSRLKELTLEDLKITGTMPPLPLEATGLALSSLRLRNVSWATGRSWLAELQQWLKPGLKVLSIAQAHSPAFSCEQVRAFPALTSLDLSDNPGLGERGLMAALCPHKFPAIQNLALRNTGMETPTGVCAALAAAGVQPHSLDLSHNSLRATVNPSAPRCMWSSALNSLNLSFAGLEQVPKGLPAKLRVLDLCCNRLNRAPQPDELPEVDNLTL

B1: sCD14(1-356) (receptor)
chain: TTPEPCELDDEDFRCVCNFSEPQPDWSEAFQCVSAVEVEIHAGGLNLEPFLKRVDADADPRQYADTVKALRVRRLTVGAAQVPAQLLVGALRVLAYSRLKELTLEDLKITGTMPPLPLEATGLALSSLRLRNVSWATGRSWLAELQQWLKPGLKVLSIAQAHSPAFSCEQVRAFPALTSLDLSDNPGLGERGLMAALCPHKFPAIQNLALRNTGMETPTGVCAALAAAGVQPHSLDLSHNSLRATVNPSAPRCMWSSALNSLNLSFAGLEQVPKGLPAKLRVLDLSCNRLNRAPQPDELPEVDNLTLDGNPFLVPGTALPHEGSMQSVVVPACARSTLSVGVSGTLVLLQGARGFA
notes: Expressed from pM1656 in COS-1 cells; GPI-anchoring sites Asn326 and Gly328 replaced by Gln and Val to give a soluble protein; In the BIACORE experiments it stood as a complex with LPS or FITC-LPS; also called full-length type human soluble CD14; recombinant soluble type CD14
B2: human serum-derived soluble type CD14 (receptor)
chain: TTPEPCELDDEDFRCVCNFSEPQPDWSEAFQCVSAVEVEIHAGGLNLEPFLKRVDADADPRQYADTVKALRVRRLTVGAAQVPAQLLVGALRVLAYSRLKELTLEDLKITGTMPPLPLEATGLALSSLRLRNVSWATGRSWLAELQQWLKPGLKVLSIAQAHSPAFSCEQVRAFPALTSLDLSDNPGLGERGLMAALCPHKFPAIQNLALRNTGMETPTGVCAALAAAGVQPHSLDLSHNSLRATVNPSAPRCMWSSALNSLNLSFAGLEQVPKGLPAKLRVLDLSCNRLNRAPQPDELPEVDNLTLDGNPFLVPGTALPHEGSMNSGVVPACARSTLSVGVSGTLVL
B3: rhesus monkey soluble type CD14 (serum) (receptor)
chain: TTPEPCELDDEDFRCVCNFSEPHPDWSEAFQCVSAVEVEIRVGGLSLEPFLTRVDPDADPRQYADTIKALRVRRLTVGAAQVPAQLLVGALRVLAYSRLQELTLEDLEITGTMPPLPLEATGLALSSLRLHNVSWATGRSWLAELQQWLKPGLKVLSIAQAHSPAFSCEQVRAFPALTSLDLSDNPGLGERGLIAALCPHKFPALQNLALRNTGMETPTGVCAALAAAGVQPHSLDLSHNSLRATANPSAPRCMWSSALNSLNLSFAGLEQVPKGLPAKLRVLDLSCNRLNRRPRPDELPQVDNLALDGNPFLVPGTALPQEGSMN
B4: crab-eating macaque soluble type CD14 (serum) (receptor)
chain: B3 chain
B5: rabbit soluble type CD14 (rabbit serum) (receptor, rabbit (New Zealand white), UniProt Q28680 18-342, looked up)
chain: STDTPEPCELDDDDIRCVCNFSDPQPDWSSALQCMPAVQVEMWGGGHSLEQFLRQADLYTDQRRYADVVKALRVRRLTVGAVQVPAPLLLGVLRVLGYSRLKELALEDIEVTGTAPPPPPLEATGPALSTLSLRNVSWPKGGAWLSELQQWLKPGLQVLNIAQAHTLAFSCEQVRTFSALTTLDLSENPGLGERGLVAALCPHKFPALQDLALRNAGMKTLQGVCAALAEAGVQPHHLDLSHNSLRADTQRCIWPSALNSLNLSFTGLQQVPKGLPAKLNVLDLSCNKLNRAPQPGELPKVVNLSLDGNPFLVPGASKLQEDLTN

Assays:
[1] = target: T1, sCD14(1-307)S286C; assay: BIACORE 3000, injected over immobilised sCD14(1-356), no LPS
[2] = target: F1024-1-3 antibody; assay: competition ELISA: 4-fold diluted serum mixed with 1 µg/mL peroxidase-labeled F1024-1-3 on immobilised human sCD14(1-356)

| Binder | binding result [1] | inhibition ratio of binding of F1024-1-3 antibody to human CD14 [2] [%] |
| --- | --- | --- |
| B1 | no binding (tested: 10 µg/mL) |  |
| B2 |  | 83 |
| B3 |  | 44 |
| B4 |  | 57 |
| B5 |  | 52 |
